In data set [1] the target is T1, Atl1 (MBP fusion cleaved with Factor Xa) (Schizosaccharomyces pombe, UniProt Q9UTN9 1-108).
T1 sequence: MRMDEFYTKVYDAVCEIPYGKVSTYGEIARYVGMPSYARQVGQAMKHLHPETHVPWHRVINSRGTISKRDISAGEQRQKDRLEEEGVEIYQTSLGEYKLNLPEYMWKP
In words: EMSA. A general note: A gel shift assay detects complexes by their altered migration in electrophoresis.

The target of data set [2] is Maltose-binding protein (MBP) (UniProt P0AEX9 27-396). In words: EMSA.

B1: O6-HOEtG 23-mer duplex (dsDNA)
DNA 1: GAACTGCAGCTCCGTGCTGGCCC
DNA 2: GGGCCAGCACGGAGCTGCAGTTC
modifications: O6-hydroxyethylguanine at G6 of strand 1
With B1, the binding result in data set [1] is “binds”.

B2: O6-PrG 23-mer duplex (dsDNA)
DNA 1: GAACTGCAGCTCCGTGCTGGCCC
DNA 2: GGGCCAGCACGGAGCTGCAGTTC
modifications: O6-n-propylguanine at G6 of strand 1
For the molecule B2, in data set [1], the binding result is on record as “binds”.

B3: O6-PobG 23-mer duplex (dsDNA)
DNA 1: GAACTGCAGCTCCGTGCTGGCCC
DNA 2: GGGCCAGCACGGAGCTGCAGTTC
modifications: O6-pyridyloxobutylguanine at G6 of strand 1
Take B3: the binding result in data set [1] is reported as “binds”.

B4: O6-BTG 23-mer duplex (dsDNA)
DNA 1: GAACTGCAGCTCCGTGCTGGCCC
DNA 2: GGGCCAGCACGGAGCTGCAGTTC
modifications: O6-(4-bromothenyl)guanine at G6 of strand 1
Consider B4, for which the binding result in data set [1] is reported as “binds”.

B5: O6-MeG 23-mer duplex (dsDNA)
DNA 1: GAACTGCAGCTCCGTGCTGGCCC
DNA 2: GGGCCAGCACGGAGCTGCAGTTC
modifications: O6-methylguanine at G6 of strand 1
Take B5: the values for the binding result in data set [1] and in data set [2] were “binds” and “no binding”, respectively.

B6: O6-CMG 23-mer duplex (dsDNA)
DNA 1: GAACTGCAGCTCCGTGCTGGCCC
DNA 2: GGGCCAGCACGGAGCTGCAGTTC
modifications: O6-carboxymethylguanine at G6 of strand 1
With B6, the binding result in data set [1] is “binds”.

B7: O6-BnG 23-mer duplex (dsDNA)
DNA 1: GAACTGCAGCTCCGTGCTGGCCC
DNA 2: GGGCCAGCACGGAGCTGCAGTTC
modifications: O6-benzylguanine at G6 of strand 1
On to B7, for which the binding result in data set [1] is reported as “binds”.

B8: O6-EtG 23-mer duplex (dsDNA)
DNA 1: GAACTGCAGCTCCGTGCTGGCCC
DNA 2: GGGCCAGCACGGAGCTGCAGTTC
modifications: O6-ethylguanine at G6 of strand 1
On to B8, for which the binding result in data set [1] is given as “binds”.

B9: G control 23-mer duplex (dsDNA)
DNA 1: GAACTGCAGCTCCGTGCTGGCCC
DNA 2: GGGCCAGCACGGAGCTGCAGTTC
B9: the binding result in data set [1] was “no binding”.

B10: O6-BuG 23-mer duplex (dsDNA)
DNA 1: GAACTGCAGCTCCGTGCTGGCCC
DNA 2: GGGCCAGCACGGAGCTGCAGTTC
modifications: O6-n-butylguanine at G6 of strand 1
Consider B10, for which the binding result in data set [1] is listed as “binds”.
